Molecular target: T1, TMEM16A (Mus musculus, UniProt Q8BHY3)
T1 construct: expressed in transfected cells; host or cells: HEK293T
T1 sequence (Q8BHY3 1-960): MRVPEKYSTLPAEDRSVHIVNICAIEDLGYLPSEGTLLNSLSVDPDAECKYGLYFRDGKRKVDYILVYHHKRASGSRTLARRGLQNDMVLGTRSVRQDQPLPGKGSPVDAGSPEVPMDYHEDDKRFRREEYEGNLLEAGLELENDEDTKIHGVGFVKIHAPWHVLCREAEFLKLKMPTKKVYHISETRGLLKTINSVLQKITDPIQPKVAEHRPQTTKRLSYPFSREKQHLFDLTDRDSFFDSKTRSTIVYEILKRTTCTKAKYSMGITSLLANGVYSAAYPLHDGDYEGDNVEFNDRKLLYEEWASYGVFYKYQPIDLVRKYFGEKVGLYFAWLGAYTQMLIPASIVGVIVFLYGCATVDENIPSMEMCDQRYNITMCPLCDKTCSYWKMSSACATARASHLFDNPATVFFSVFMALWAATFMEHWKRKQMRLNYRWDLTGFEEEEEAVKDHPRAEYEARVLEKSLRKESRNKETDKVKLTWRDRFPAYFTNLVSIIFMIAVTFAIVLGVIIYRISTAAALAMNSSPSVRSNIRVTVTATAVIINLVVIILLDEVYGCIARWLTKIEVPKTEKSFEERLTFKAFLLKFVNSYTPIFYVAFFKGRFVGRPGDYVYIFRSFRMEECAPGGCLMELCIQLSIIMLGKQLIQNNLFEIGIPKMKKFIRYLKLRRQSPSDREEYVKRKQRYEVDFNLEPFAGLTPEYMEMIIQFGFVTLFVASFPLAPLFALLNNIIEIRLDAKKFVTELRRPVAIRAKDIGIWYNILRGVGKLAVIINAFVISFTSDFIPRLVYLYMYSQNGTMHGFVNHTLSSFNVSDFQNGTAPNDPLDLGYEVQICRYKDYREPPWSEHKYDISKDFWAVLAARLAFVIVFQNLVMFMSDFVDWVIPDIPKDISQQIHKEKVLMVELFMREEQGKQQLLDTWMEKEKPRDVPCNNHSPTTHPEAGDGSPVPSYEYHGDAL
Test: Whole-cell patch-clamp of HEK293T cells expressing TMEM16A
Format: cell-based
Procedure: mTMEM16A (kindly provided by Dr Lily Yeh Jan) and hKCNE1 cDNA were subcloned in pIRES2eGFP, pXOOM, pcDNA3.1, pCDNA3.1-GFP and pCMV-HA vectors. Truncations and mutations on KCNE1 were generated by PCR. For SiMPull experiments, HA-tags were fused to the N-terminus of sequences, whereas GFP-tags were fused to C-terminal part. HEK293T and PCT cells were transiently co-transfected using Lipofectamine 2000 or the calcium phosphate method with a total amount of 1 and 3.5 μg of DNA, respectively, and seeded on 18 mm diameter coverslips. HEK cells were maintained in DMEM with 5% FBS on poly-L-lysine-coated glass coverslips in 12 well plates. PCT cells from wild type and knock-out mice were microdissected as described previously and maintained in F12 (Gibco) on collagen-coated glass coverslips.
HEK293T and PCT cell electrophysiology was performed 24-48 h after transfection. For whole-cell patch-clamp experiments cells were recorded in a bath solution containing (in mM) 150 NaCl, 5 KCl, 2 CaCl2 and 10 HEPES, pH 7.4 and 0.05% BSA. The glass pipettes (2-5 MΩ of resistance) were filled with (in mM) 5 NaCl, 135 CsCl, 2 MgCl2, 5 EGTA, 10 HEPES, pH 7.3. Cells were recorded either after incubation of 30 min with the peptide or during perfusion with the peptide. Total calcium concentration was calculated with Maxchelator (maxchelator.standford.edu) for a temperature of 20° C. HEK293T and PCT cells were recorded at room temperature in voltage-clamp mode using an Axopatch 200A (Molecular Devices) amplifier. Signals were filtered at 10 kHz and digitalized at 20 kHz. Whole-cell currents were elicited by voltage-ramps (from −100 to +100 mV, 1 s) and I-V stimulation pulses (from −100 to +100 mV in 20 mV increments, 1 s each pulse), holding the cells at −80 mV. Current densities were measured at +100 mV. Cell recordings, data acquisition and analysis of electrophysiology experiments were performed using pClamp software (Molecular Devices).

“LARRSPRSSDGKL (SEQ ID NO: 2) (amino acid residues between positions 30 to 42 of the human KCNE1 protein sequence) [N13ter]” was tested, and the “current density elicited by peptide at +100 mV” value (100 μM peptide, HEK293T cells expressing TMEM16A alone) was 15.48±3.25 pA/pF, the “potency on TMEM16A compared with rat N13 peptide” value (100 μM, HEK293T expressing TMEM16A and Xenopus oocytes (FIG. 9)) was “more potent” and the “effect of peptide application on TMEM16A current” value (HEK293T cells expressing TMEM16A alone, 100 μM for Nter13, S38G and rat peptides) was “induces TMEM16A current properties”.

Reference: US12702692B2, “Therapeutic use of calcium-activated chloride channel peptide activator” (CENTRE NATIONAL DE LA RECHERCHE SCIENTIFIQUE, priority 2020, dated 2026)
